The record followed here is the supplement of paper PMC9112550, “Optimization of the antimicrobial peptide Bac7 by deep mutational scanning” (BMC Biology, 2022).

The data set has as its system Escherichia coli TOP10. Nature of the data set: shrunken log2 fold change of peptide-encoding DNA abundance (4.5 h post-induction vs induction); higher = less antimicrobial activity (less host growth inhibition). The following applies: time post-induction: 4.5 h; library: site-saturation at positions 5, 18, 19, 20.
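Further: peptides expressed intracellularly from a pBAD plasmid library in pooled LB shake-flask culture, induced with 0.3% L-arabinose, DNA abundance read by NGS, three biological replicates, DESeq2 with apeglm shrinkage.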

With RRIRTRPPRLPRPRPRPCPRPRP, the “shrunken log2 fold change” value is -0.13.

RRIRSRPPRLPRPRPRPRFTPRP: the “shrunken log2 fold change” value was -0.115.

Regarding RRIRVRPPRLPRPRPRPHKEPRP, the “shrunken log2 fold change” value was found to be 0.0216.

Regarding RRIRCRPPRLPRPRPRPKISPRP, the “shrunken log2 fold change” value was -0.712.

As for RRIRGRPPRLPRPRPRPYQRPRP, the “shrunken log2 fold change” value turned out to be 0.189.

Regarding RRIRRRPPRLPRPRPRPKGNPRP, the “shrunken log2 fold change” value is 0.0579.

On to RRIRFRPPRLPRPRPRPGYCPRP, for which the “shrunken log2 fold change” value was -0.321.

Take RRIRHRPPRLPRPRPRPCWNPRP: the “shrunken log2 fold change” value is -0.151.

RRIRTRPPRLPRPRPRPHFRPRP: the “shrunken log2 fold change” value is -0.284.

As to RRIRVRPPRLPRPRPRPEGDPRP, the “shrunken log2 fold change” value stood at 0.297.

With RRIRSRPPRLPRPRPRPTGQPRP, the “shrunken log2 fold change” value was found to be 0.31.

Take RRIRGRPPRLPRPRPRPFESPRP: the “shrunken log2 fold change” value stood at 0.0306.

RRIRIRPPRLPRPRPRPCVVPRP: the “shrunken log2 fold change” value was -0.00586.

For RRIRVRPPRLPRPRPRPWFTPRP, the “shrunken log2 fold change” value amounted to 0.0469.

On to RRIRQRPPRLPRPRPRPDNCPRP, for which the “shrunken log2 fold change” value was 0.0333.

Regarding RRIRNRPPRLPRPRPRPWLWPRP, the “shrunken log2 fold change” value was 0.165.

In the case of RRIRNRPPRLPRPRPRPWREPRP, the “shrunken log2 fold change” value amounted to 0.262.

On to RRIRTRPPRLPRPRPRPHNSPRP, for which the “shrunken log2 fold change” value was -1.22.

Regarding RRIRTRPPRLPRPRPRPPTYPRP, the “shrunken log2 fold change” value is -0.149.

For RRIRDRPPRLPRPRPRPEMQPRP, the “shrunken log2 fold change” value is -0.0247.

RRIRRRPPRLPRPRPRPKNWPRP: the “shrunken log2 fold change” value is 0.381.

With RRIRGRPPRLPRPRPRPCLGPRP, the “shrunken log2 fold change” value is 0.0741.

For RRIRLRPPRLPRPRPRPKRIPRP, the “shrunken log2 fold change” value is 0.109.

Regarding RRIRRRPPRLPRPRPRPKYQPRP, the “shrunken log2 fold change” value is -0.017.

As for RRIRTRPPRLPRPRPRPLDRPRP, the “shrunken log2 fold change” value amounted to 0.0153.

Consider RRIRERPPRLPRPRPRPCFFPRP, for which the “shrunken log2 fold change” value is -0.331.

With RRIRRRPPRLPRPRPRPTMEPRP, the “shrunken log2 fold change” value was -0.0829.

For RRIRIRPPRLPRPRPRPTENPRP, the “shrunken log2 fold change” value amounted to 0.0227.

Take RRIRWRPPRLPRPRPRPWYRPRP: the “shrunken log2 fold change” value is -0.174.

For RRIRIRPPRLPRPRPRPNGVPRP, the “shrunken log2 fold change” value was -0.37.

As to RRIRVRPPRLPRPRPRPFWIPRP, the “shrunken log2 fold change” value was -0.182.

On to RRIRNRPPRLPRPRPRPAICPRP, for which the “shrunken log2 fold change” value is -0.0274.

On to RRIRFRPPRLPRPRPRPHTYPRP, for which the “shrunken log2 fold change” value is -0.554.

Consider RRIRMRPPRLPRPRPRPPQIPRP, for which the “shrunken log2 fold change” value was 0.468.

As to RRIRVRPPRLPRPRPRPAVGPRP, the “shrunken log2 fold change” value was determined as 0.186.

As for RRIRERPPRLPRPRPRPGFSPRP, the “shrunken log2 fold change” value was -0.196.

Turning to RRIRMRPPRLPRPRPRPIGKPRP, the “shrunken log2 fold change” value was found to be 0.208.

On to RRIRSRPPRLPRPRPRPLQHPRP, for which the “shrunken log2 fold change” value is -0.00742.

Turning to RRIRDRPPRLPRPRPRPAKDPRP, the “shrunken log2 fold change” value is -0.0015.

As for RRIRWRPPRLPRPRPRPKVRPRP, the “shrunken log2 fold change” value is -0.00879.

For the sequence RRIRLRPPRLPRPRPRPVMIPRP, the “shrunken log2 fold change” value is -0.269.

On to RRIRRRPPRLPRPRPRPQLQPRP, for which the “shrunken log2 fold change” value was found to be 0.413.

RRIRNRPPRLPRPRPRPIGNPRP: the “shrunken log2 fold change” value amounted to 0.0106.

Turning to RRIRCRPPRLPRPRPRPTNNPRP, the “shrunken log2 fold change” value is -0.619.

Regarding RRIRKRPPRLPRPRPRPCDAPRP, the “shrunken log2 fold change” value is 0.0682.

Consider RRIRLRPPRLPRPRPRPSCIPRP, for which the “shrunken log2 fold change” value is -0.461.

For the sequence RRIRWRPPRLPRPRPRPHPTPRP, the “shrunken log2 fold change” value was determined as 0.115.

As to RRIRVRPPRLPRPRPRPYSEPRP, the “shrunken log2 fold change” value was -0.217.

Consider RRIRLRPPRLPRPRPRPDNKPRP, for which the “shrunken log2 fold change” value is -0.357.

For RRIRCRPPRLPRPRPRPNCWPRP, the “shrunken log2 fold change” value amounted to 0.078.

Consider RRIRRRPPRLPRPRPRPNKVPRP, for which the “shrunken log2 fold change” value is -0.213.

RRIRPRPPRLPRPRPRPAWVPRP: the “shrunken log2 fold change” value is 0.401.

As for RRIRVRPPRLPRPRPRPAFAPRP, the “shrunken log2 fold change” value came out at 0.666.

Turning to RRIRIRPPRLPRPRPRPQTTPRP, the “shrunken log2 fold change” value was -0.38.

RRIRARPPRLPRPRPRPAEPPRP: the “shrunken log2 fold change” value came to 0.443.

Consider RRIRQRPPRLPRPRPRPGRHPRP, for which the “shrunken log2 fold change” value worked out at 0.0349.

Consider RRIRYRPPRLPRPRPRPHTMPRP, for which the “shrunken log2 fold change” value was -0.604.

Regarding RRIRNRPPRLPRPRPRPKKTPRP, the “shrunken log2 fold change” value was -0.197.

Regarding RRIRPRPPRLPRPRPRPDMWPRP, the “shrunken log2 fold change” value is -0.103.

Turning to RRIRTRPPRLPRPRPRPCTPPRP, the “shrunken log2 fold change” value was -0.214.

With RRIRNRPPRLPRPRPRPIVRPRP, the “shrunken log2 fold change” value stood at 0.0133.

As to RRIRIRPPRLPRPRPRPYFYPRP, the “shrunken log2 fold change” value is -0.469.

RRIRARPPRLPRPRPRPSWMPRP: the “shrunken log2 fold change” value was -0.131.

Take RRIRRRPPRLPRPRPRPWYSPRP: the “shrunken log2 fold change” value was -0.0705.

For the sequence RRIRWRPPRLPRPRPRPKGWPRP, the “shrunken log2 fold change” value amounted to 0.845.

In the case of RRIRSRPPRLPRPRPRPGDNPRP, the “shrunken log2 fold change” value came out at 0.0473.

In the case of RRIRARPPRLPRPRPRPYMKPRP, the “shrunken log2 fold change” value was -0.366.

As for RRIRKRPPRLPRPRPRPQDYPRP, the “shrunken log2 fold change” value is 0.118.

With RRIRQRPPRLPRPRPRPKCCPRP, the “shrunken log2 fold change” value is -0.113.

With RRIRWRPPRLPRPRPRPYGCPRP, the “shrunken log2 fold change” value is -0.189.

As to RRIRRRPPRLPRPRPRPKCNPRP, the “shrunken log2 fold change” value was -0.0456.

Consider RRIRSRPPRLPRPRPRPCWSPRP, for which the “shrunken log2 fold change” value stood at 0.0886.

RRIRGRPPRLPRPRPRPYYDPRP: the “shrunken log2 fold change” value is -0.294.

Regarding RRIRARPPRLPRPRPRPKIWPRP, the “shrunken log2 fold change” value was 0.53.

Regarding RRIRNRPPRLPRPRPRPMYWPRP, the “shrunken log2 fold change” value was -0.000123.

Take RRIRCRPPRLPRPRPRPKAQPRP: the “shrunken log2 fold change” value was found to be 0.262.

Take RRIRPRPPRLPRPRPRPVRLPRP: the “shrunken log2 fold change” value is 0.238.

Turning to RRIRYRPPRLPRPRPRPCHNPRP, the “shrunken log2 fold change” value is -1.52.

For the sequence RRIRARPPRLPRPRPRPVNQPRP, the “shrunken log2 fold change” value is -0.0386.

In the case of RRIRFRPPRLPRPRPRPFWTPRP, the “shrunken log2 fold change” value was -0.257.

RRIRYRPPRLPRPRPRPAINPRP: the “shrunken log2 fold change” value was -0.051.

As to RRIRYRPPRLPRPRPRPFCKPRP, the “shrunken log2 fold change” value is -1.59.

As to RRIRLRPPRLPRPRPRPDMNPRP, the “shrunken log2 fold change” value is -0.155.

On to RRIRPRPPRLPRPRPRPGIIPRP, for which the “shrunken log2 fold change” value was -0.0894.

Take RRIRKRPPRLPRPRPRPSFVPRP: the “shrunken log2 fold change” value was -0.174.

As to RRIRGRPPRLPRPRPRPLERPRP, the “shrunken log2 fold change” value came out at 0.577.

Regarding RRIRDRPPRLPRPRPRPTVRPRP, the “shrunken log2 fold change” value was 0.0184.

Consider RRIRVRPPRLPRPRPRPGKVPRP, for which the “shrunken log2 fold change” value was -0.272.

As for RRIRFRPPRLPRPRPRPRPNPRP, the “shrunken log2 fold change” value stood at 0.4.

With RRIRHRPPRLPRPRPRPTDVPRP, the “shrunken log2 fold change” value was -0.217.

RRIRPRPPRLPRPRPRPCPMPRP: the “shrunken log2 fold change” value is -0.156.

As for RRIRDRPPRLPRPRPRPLLYPRP, the “shrunken log2 fold change” value was determined as 0.116.

Regarding RRIRDRPPRLPRPRPRPGAVPRP, the “shrunken log2 fold change” value is 0.614.

As to RRIRVRPPRLPRPRPRPYTHPRP, the “shrunken log2 fold change” value is -0.912.

For the sequence RRIRARPPRLPRPRPRPSNGPRP, the “shrunken log2 fold change” value is -0.318.

As for RRIRGRPPRLPRPRPRPNETPRP, the “shrunken log2 fold change” value came to 0.0274.

Take RRIRQRPPRLPRPRPRPFQNPRP: the “shrunken log2 fold change” value is -0.179.

On to RRIRCRPPRLPRPRPRPNQPPRP, for which the “shrunken log2 fold change” value is -0.0425.

Take RRIRHRPPRLPRPRPRPEKMPRP: the “shrunken log2 fold change” value is -0.0669.

In the case of RRIRARPPRLPRPRPRPSMKPRP, the “shrunken log2 fold change” value is -0.037.

Consider RRIRWRPPRLPRPRPRPKNHPRP, for which the “shrunken log2 fold change” value was -0.248.

On to RRIRHRPPRLPRPRPRPIQDPRP, for which the “shrunken log2 fold change” value was -0.00151.

On to RRIRGRPPRLPRPRPRPAWCPRP, for which the “shrunken log2 fold change” value amounted to 0.822.

Take RRIRQRPPRLPRPRPRPPHPPRP: the “shrunken log2 fold change” value was determined as 0.548.

As to RRIRPRPPRLPRPRPRPKFFPRP, the “shrunken log2 fold change” value worked out at 0.0479.

For the sequence RRIRIRPPRLPRPRPRPQRIPRP, the “shrunken log2 fold change” value was -0.536.

Take RRIRTRPPRLPRPRPRPCPTPRP: the “shrunken log2 fold change” value was 0.0552.

On to RRIRKRPPRLPRPRPRPQDDPRP, for which the “shrunken log2 fold change” value worked out at 0.00685.

As for RRIRNRPPRLPRPRPRPACSPRP, the “shrunken log2 fold change” value stood at 0.0895.

Regarding RRIRIRPPRLPRPRPRPACPPRP, the “shrunken log2 fold change” value is -0.146.

In the case of RRIRFRPPRLPRPRPRPIKCPRP, the “shrunken log2 fold change” value was -0.229.

With RRIRYRPPRLPRPRPRPASMPRP, the “shrunken log2 fold change” value was 0.0167.

On to RRIRNRPPRLPRPRPRPWIYPRP, for which the “shrunken log2 fold change” value was -0.187.

Consider RRIRWRPPRLPRPRPRPAKSPRP, for which the “shrunken log2 fold change” value is 0.228.

In the case of RRIRNRPPRLPRPRPRPMATPRP, the “shrunken log2 fold change” value was -0.0123.

On to RRIRARPPRLPRPRPRPTVQPRP, for which the “shrunken log2 fold change” value was 0.549.

Turning to RRIRGRPPRLPRPRPRPVGDPRP, the “shrunken log2 fold change” value stood at 0.802.

As to RRIRHRPPRLPRPRPRPMCYPRP, the “shrunken log2 fold change” value is 0.118.

Consider RRIRGRPPRLPRPRPRPHFHPRP, for which the “shrunken log2 fold change” value worked out at 0.603.

Consider RRIRHRPPRLPRPRPRPEPKPRP, for which the “shrunken log2 fold change” value was -0.0206.

Consider RRIRVRPPRLPRPRPRPFRLPRP, for which the “shrunken log2 fold change” value was -0.267.

Turning to RRIRTRPPRLPRPRPRPYYSPRP, the “shrunken log2 fold change” value was -0.274.

As for RRIRERPPRLPRPRPRPNSIPRP, the “shrunken log2 fold change” value was -0.317.

For the sequence RRIRGRPPRLPRPRPRPNQSPRP, the “shrunken log2 fold change” value worked out at 0.17.

As to RRIRERPPRLPRPRPRPFDHPRP, the “shrunken log2 fold change” value was found to be 0.0195.
